The record followed here is patent US20230295310A1 (ABCELLERA BIOLOGICS, published 2023).

One experiment has as its target human CD3 (human, UniProt P07766 23-207; P04234 22-171; P09693 23-182). The experiment is described as follows: cell-based or functional assay.
Experiment [1] has as its target T1, human CD3 expressed on cells (human, UniProt P07766 23-207; P04234 22-171; P09693 23-182).
T1 construct: whole, on cells; CD3 complex on Jurkat cells and on human primary T cells
The experiment is described as follows: flow cytometry, 25 nM. Here is the method:
Purified antibodies were confirmed to bind CD3 expressed on cells using the CytoFLEX S or LX flow cytometers (Beckman Coulter). Antibodies were diluted to 25 nM in FACS buffer (PBS+2% FBS) and were incubated with CD3-expressing cells for 30 minutes at 4° C. […] The median fluorescence intensity of the binding signal for each antibody was normalized to the isotype control to obtain a fold over isotype value. An antibody with a fold over isotype (FOI) of ≥10 was considered to be positive for binding.
For orientation: In flow cytometry, cells or beads pass a laser one at a time.

T1 sequence (P07766 23-207, chain 1 of 3): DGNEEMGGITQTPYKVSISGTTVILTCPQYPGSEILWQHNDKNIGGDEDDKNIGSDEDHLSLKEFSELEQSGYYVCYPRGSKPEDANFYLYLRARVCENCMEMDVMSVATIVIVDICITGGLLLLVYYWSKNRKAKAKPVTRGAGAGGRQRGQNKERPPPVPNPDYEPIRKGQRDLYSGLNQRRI
T1 sequence (P04234 22-171, chain 2 of 3): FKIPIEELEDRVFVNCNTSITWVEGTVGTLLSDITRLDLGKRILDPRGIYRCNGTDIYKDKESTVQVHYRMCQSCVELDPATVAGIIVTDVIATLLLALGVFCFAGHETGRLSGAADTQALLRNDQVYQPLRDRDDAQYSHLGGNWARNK
T1 sequence (P09693 23-182, chain 3 of 3): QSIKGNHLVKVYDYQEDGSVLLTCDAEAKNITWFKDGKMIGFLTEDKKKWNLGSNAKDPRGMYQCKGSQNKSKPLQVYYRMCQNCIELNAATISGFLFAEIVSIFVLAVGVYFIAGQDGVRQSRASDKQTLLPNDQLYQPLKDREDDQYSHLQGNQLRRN
Chain of human CD3 (P07766 23-207, chain 1 of 3): as the sequence (P07766 23-207, chain 1 of 3) above
Chain of human CD3 (P04234 22-171, chain 2 of 3): as the sequence (P04234 22-171, chain 2 of 3) above
Chain of human CD3 (P09693 23-182, chain 3 of 3): as the sequence (P09693 23-182, chain 3 of 3) above

B1: mAb 142 (antibody, V domains shown)
VH: QVQLVESGGGVVQPGRSLRLSCAASGFTFSSYGMHWVRQAPGKGLEWVAVIWYDGSNKYYADSVKGRFTISRDNSKNTLYLQMNSLRAEDTAVYYCARTGITGTTAYFYFDSWGQGTLVTVSS
VL: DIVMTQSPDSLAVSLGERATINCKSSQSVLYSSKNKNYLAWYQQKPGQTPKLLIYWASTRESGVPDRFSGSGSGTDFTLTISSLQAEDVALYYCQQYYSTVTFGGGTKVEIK
Take B1: in the experiment with human CD3, the “CD4 EC50 (nM); CD69/CD25 on human T cells, plate-coated antibody” value (“CD4 EC50 (nM); CD69/CD25” for short) was 26.9 nM and the “CD8 EC50 (nM); CD69/CD25 on human T cells, plate-coated antibody” value (“CD8 EC50 (nM); CD69/CD25” for short) is 32 nM.

B2: mAb 161 (antibody, V domains shown)
VH: EVQLVESGGGLVQPGRSLRLSCAASGITFADYTMHWVRQAPGKGLEWVSGISWNSGSIDYADSVKGRFTISRDNAKKTLYLQMNRLRAEDTALYYCAKDSSGYGHYYFYYLDVWGKGTTVTVSS
VL: EIVMTQSPATLSVSPGERATLSCRASQSVSNNLAWYQQKPGQAPRLLIYSTSTRATGIPARFSGSRSGTEFTLTISSLQSEDSAVYYCQQYNNWPHFGQGTRLEIK
For B2, in experiment [1], the “Human primary T Cell Binding (FOI)” value worked out at 170 FOI and the “Jurkat Cell Binding (FOI)” value came out at 106 FOI.

B3: mAb 137 (antibody, V domains shown)
VH: QVQLVESGGGVVQPGRSLRLSCAASGFTFSTYGMHWVRQAPGKGLEWVAVIWYDGSHKYYADSVKGRFTISRDNSKKTLYLQMNSLRAEDTGIYYCARTGISGNMSYFYFDHWGQGILVTVSS
VL: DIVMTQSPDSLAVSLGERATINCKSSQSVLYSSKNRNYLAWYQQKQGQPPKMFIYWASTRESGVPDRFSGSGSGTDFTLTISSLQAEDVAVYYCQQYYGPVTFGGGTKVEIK
As to B3, in the experiment with human CD3, the “CD4 EC50 (nM); CD69/CD25” value is 13.1 nM and the “CD8 EC50 (nM); CD69/CD25” value was found to be 14.1 nM.

B4: mAb 140 (antibody, V domains shown)
VH: QVQLVESGGGVVQPGRSLRLSCAASGFTFSTYGMHWVRQAPGKGLEWVAVIWYDGSHKYYADSVKGRFTISRDNSKNTLYLQMNSLRAEDTAVYYCARTGITGTTAYFYFDYWGQGTLVTVSS
VL: not shown
Turning to B4, in experiment [1], the “Human primary T Cell Binding (FOI)” value was 148 FOI and the “Jurkat Cell Binding (FOI)” value was 135 FOI.

B5: mAb 140 (antibody, V domains shown)
VH: QVQLVESGGGVVQPGRSLRLSCAASGFTFSTYGMHWVRQAPGKGLEWVAVIWYDGSHKYYADSVKGRFTISRDNSKNTLYLQMNSLRAEDTAVYYCARTGITGTTAYFYFDYWGQGTLVTVSS
VL: not shown
B5: in the experiment with human CD3, the “CD4 EC50 (nM); CD69/CD25” value was 13.7 nM and the “CD8 EC50 (nM); CD69/CD25” value amounted to 17.8 nM.

B6: mAb 144 (antibody, V domains shown)
VH: QVQLVESGGYVVQPGRSLRLSCAASGFTFSNFGMHWVRQAPGKGLEWVAVIWYDGSHKYYADSVKGRFTISRDNSKNTLYLQMNSLRAEDTAVYYCARTGITGTTAYFYFDYWGQGTLVTVSS
VL: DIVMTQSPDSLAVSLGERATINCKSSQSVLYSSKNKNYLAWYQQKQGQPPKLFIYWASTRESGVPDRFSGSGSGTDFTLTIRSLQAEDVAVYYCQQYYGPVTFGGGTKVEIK
In the case of B6, in experiment [1], the “Human primary T Cell Binding (FOI)” value turned out to be 157 FOI and the “Jurkat Cell Binding (FOI)” value turned out to be 139 FOI.

B7: mAb 146 (antibody, V domains shown)
VH: QVQLVESGGGVVQPGRSLRLSCAASGFTFITYGMHWVRQAPGKGLEWVAVIWYDGSHKYYADSVKGRFTISRDNSKNMLYLQMNSLRVEDTAVYYCARTGITGTTAYFYFDNWGQGTLVTVSS
VL: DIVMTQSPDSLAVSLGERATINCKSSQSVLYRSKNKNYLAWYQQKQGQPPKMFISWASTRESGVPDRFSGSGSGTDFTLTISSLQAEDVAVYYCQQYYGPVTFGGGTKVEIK
As to B7, in experiment [1], the “Human primary T Cell Binding (FOI)” value turned out to be 340 FOI and the “Jurkat Cell Binding (FOI)” value stood at 194 FOI.

B8: mAb 167 (antibody, V domains shown)
VH: EVHLVESGGGLVQPGRSLRLSCAASGFTFDDYAMHWVRQAPGKGLEWVSGISWNSGTIGYADSVKGRFTISRDNAKNSLYLEMNSLRAEDTALYYCAKDSSGYGHYYHYYIDVWGTGTTVTVSS
VL: EIVMTQSPATLSVSPGGRATLSCRASQSVGSNLAWYQQKPGQAPRLLIYDASTRATGIPARFRGSGSGTEFTLTISGLQSEDFAVYYCQLYYNWPHFGQGTRLEIK
For B8, in experiment [1], the “Human primary T Cell Binding (FOI)” value was found to be 167 FOI and the “Jurkat Cell Binding (FOI)” value worked out at 124 FOI.

B9: mAb 68 (antibody, V domains shown)
VH: EVQLVDSGGGLVQPGGSLRLSCSGSGFTFSSYWMSWVRQAPGKGLEWVANIKQDGSQKYYVDSVKGRFTISRDNVKNSLYLQMNSLRVEDTAVYYCARDESSSWYWYFDLWGRGTLVTVSS
VL: DIQMTQSPSTLSASVGDRVTLTCRASQNIVKWLAWYQQKPGKAPKLLIYKASSLESGVPSWFSGSGSGTEFTLTINSLQPDDFATYYCQQYYTYSRTFGQGTKVEIK
As for B9, in experiment [1], the “Human primary T Cell Binding (FOI)” value amounted to 117 FOI and the “Jurkat Cell Binding (FOI)” value was found to be 113 FOI.

B10: mAb 77 (antibody, V domains shown)
VH: EVQLVESGGGLVQPGGSLRLSCAASGFTFSNYWMSWVRQAPGKGLEWVANIKQDGSEKYYVDSVRGRFTISRDNAKKSLYLQMNSLRAEDTAVYYCARDNSNYAYWYFDIWGRGTLVTVSS
VL: DIQMTQSPSTLSVSVGDRVTITCRASQSIRKWLAWYQQKPGKAPKLLIFKASSLESGVPSRFSGSGSGTEFTLTISSLQPDDFATYYCQQYDTYSRTFGQGTKVEIK
As for B10, in experiment [1], the “Human primary T Cell Binding (FOI)” value is 125 FOI and the “Jurkat Cell Binding (FOI)” value was 106 FOI.

B11: mAb 141 (antibody, V domains shown)
VH: QVQLVQSGAEVKKPGASVKVSCKASGYTFTSYYIHWVRQAPGQGLDWMGIINPSGGITGYAQKLQGRVTMTRDTSTTTVYMELSSLRSDDTAVYYCARGVRGNYYYYYMDVWGKGTTVTVSS
VL: EIVLTQSPDFQSVTPKEKVTITCRASQSIGSKLHWYQQKPDQSPKLLIKYASQSFSGVPSRFSGSGSGTDFNLTINSLEAEDAATFYCHQSSGLPYTFGQGTKLEIK
Regarding B11, in the experiment with human CD3, the “CD4 EC50 (nM); CD69/CD25” value turned out to be 22.1 nM and the “CD8 EC50 (nM); CD69/CD25” value worked out at 22.8 nM.

B12: mAb 145 (antibody, V domains shown)
VH: QVQLVQSGAEVKKPGASVKVSCKASGYTFTNYYIHWVRQAPGQGLDWMGIINPSGGITGYAQKFQGRVTMTRDTSTTTVYMELSSLRSDDTAVYYCARGVRGNYYYYYMDVWGKGTTVTVSS
VL: EIVLTQSPDFQSVTPKEKVTITCRASQSIGSKLHWYQQKPDQSPKLLIKFASQSFSGVPSRFSGSGSGTDFNLTINSLEPEDAATFYCHQSSGLPYTFGQGTKLEIK
As to B12, in the experiment with human CD3, the “CD4 EC50 (nM); CD69/CD25” value turned out to be 13.3 nM and the “CD8 EC50 (nM); CD69/CD25” value is 14.9 nM.

B13: mAb 131 (antibody, V domains shown)
VH: EVQLVESGGGLVKTGGSLRISCVASGFSFKKAWMNWVRQAPGKGLEWVGRIKRNTDGGTIDYAAPVKGRFSLSRDDSKNTLFLQMNSLKTEDTAVYFCTTLDSSSYYVGYYYMDVWGKGTTVTVSS
VL: DIHMTQSPSSVSASVGDRVTITCRASQDINNWLAWYQQKPGKAPKLLIYTASSLQSGVPSRFSGSGSGTDFTLTISSLQPEDFATYFCQQAHSLPITFGQGTRLGIK
B13: in the experiment with human CD3, the “CD4 EC50 (nM); CD69/CD25” value amounted to 13.3 nM and the “CD8 EC50 (nM); CD69/CD25” value worked out at 13.3 nM.

B14: mAb 132 (antibody, V domains shown)
VH: DVQLVESGGGTVKTGGSLRLSCVASGFSFKKAWMNWVRQAPGKGLEWVGRIKKNSDGGTADYAAPVKGRFTISRDDSKKTLYLQMNSLQTEDTAVYYCTTLDSSSWYVGYYYMDVWGKGTTVTVSS
VL: DIQMTQSPSSVSASVGDRVIITCRASQDINNWLAWYQQKPGIAPKLLIYTASSLQSGVPSRFSGSGSVSDFTLTIGSLQPEDFATYYCQQAHSLPITFGQGTRLEIK
Consider B14, for which, in the experiment with human CD3, the “CD4 EC50 (nM); CD69/CD25” value was 6.39 nM and the “CD8 EC50 (nM); CD69/CD25” value was determined as 6.34 nM.

B15: mAb 133 (antibody, V domains shown)
VH: EVQLVESGGGLVKTGGSLRLSCVASGFSFKKAWMSWVRQAPGKGLEWVGRIKRNTDGGTADYAAPVKGRFTLSRDDSKKTLFLQMNSLKTEDSAVYYCVTLDSSSYYVGYYYMDVWGKGTTVTVSS
VL: DIQMTQSPSSVSASVGDRVSITCRASQDINNWLAWYQQKPGKAPKLLIYTASSLQSGVPSRFSGSGSGTDFTLTIGSLQPEDFATYYCQQAHSLPITFGQGTRLEIK
As for B15, in the experiment with human CD3, the “CD4 EC50 (nM); CD69/CD25” value is 13.9 nM and the “CD8 EC50 (nM); CD69/CD25” value was found to be 13.6 nM.

B16: mAb 49 (antibody, V domains shown)
VH: EVQLVESGGGLVPPGGSLRLSCVASGFTLRSYTMNWVRQAPGQGLEWISYISSTSRTIYYSDSVKGRFTISRDNAKNSLYLQVNSLRDEDTALYYCAREDYYDSSGFDCWGQGTLVTVSS
VL: AIRMTQSPSSFSASTGDRVTITCRASQGIFNYLAWYQQKPGKAPKLLIYSTSTLQSGVPSRFSGSGSGTDFTLTIRGLQSEDLATYYCQQYYSFPRTFGQGTKVDIK
Turning to B16, in the experiment with human CD3, the “CD4 EC50 (nM); CD69/CD25” value is 6.76 nM and the “CD8 EC50 (nM); CD69/CD25” value was 6.65 nM.

B17: mAb 42 (antibody, V domains shown)
VH: QAQLVQSGSELKKPGASVKVSCKASGYTFTKHSMNWVRQAPGQGLEWMGWINTNTGNPTYAQGFTGRFVFSLDTSVTTAYLQISSLKAEDTAVYYCAREGDYDFWSGFFNFDYWGQGTLVTVSS
VL: DIQMTQSPSSLSASVGDRVTITCRASQGIRNDLGWYQQKPGKAPKRLIYAASSLQSGVPSRFSGSGSGAEFTLTISSLQPEDFATYYCLQHNSYPRTFGQGTKVEIK
On to B17, for which, in the experiment with human CD3, the “CD4 EC50 (nM); CD69/CD25” value came to 25.4 nM and the “CD8 EC50 (nM); CD69/CD25” value is 25.5 nM.

B18: mAb 50 (antibody, V domains shown)
VH: QAQLVQSGSELKKPGASVKVSCKASGYTFTRHAMNWVRQAPGQGLEWMGWINTNTGNPTYAQGFTGRFVFSLDTSVTTAYLQISSLKAEDTAVYYCAREGDYDFWSGFFNFDYWGQGTLVTVSS
VL: DIQMTQSPSSLSASVGDRVTITCRASQGIRNDLGWFQQKPGKAPTRLIYAASSLQSGVPSRFSGSGSGAEFTLTISSLQPEDFATYYCLQHNSYPRTFGQGTKVEIK
As for B18, in the experiment with human CD3, the “CD4 EC50 (nM); CD69/CD25” value was determined as 26.3 nM and the “CD8 EC50 (nM); CD69/CD25” value was found to be 24.5 nM.

B19: mAb 43 (antibody, V domains shown)
VH: QAQLVQSGSELKKPGASVKVSCKASGYTFTKHSMNWVRQAPGQGLEWMGWINTNTGNPMYAQGFTGRFVFSLDTSVTTAYLQISSLKAEDTAVYYCAREGDYDFWSGFFNFDYWGQGTLVTVSS
VL: DIQMTQSPSSLSASVGDRVTITCRASQGIRNDLGWYQQKPGKAPKRLIYAASSLQSGVPSRFSGSGSGAEFTLTISSLQPEDFATYYCLQHNSYPRTFGQGTKVEIK
Consider B19, for which, in experiment [1], the “Human primary T Cell Binding (FOI)” value was found to be 83.3 FOI and the “Jurkat Cell Binding (FOI)” value was found to be 108 FOI.
